Source: publication PMC11886768 (2025)

B1: CRY1 (third protein in the mammalian three-hybrid assay) [Arabidopsis] / E-COP1 [Arabidopsis] (parent complex)
chain 1: MSGSVSGCGSGGCSIVWFRRDLRVEDNPALAAAVRAGPVIALFVWAPEEEGHYHPGRVSRWWLKNSLAQLDSSLRSLGTCLITKRSTDSVASLLDVVKSTGASQIFFNHLYDPLSLVRDHRAKDVLTAQGIAVRSFNADLLYEPWEVTDELGRPFSMFAAFWERCLSMPYDPESPLLPPKKIISGDVSKCVADPLVFEDDSEKGSNALLARAWSPGWSNGDKALTTFINGPLLEYSKNRRKADSATTSFLSPHLHFGEVSVRKVFHLVRIKQVAWANEGNEAGEESVNLFLKSIGLREYSRYISFNHPYSHERPLLGHLKFFPWAVDENYFKAWRQGRTGYPLVDAGMRELWATGWLHDRIRVVVSSFFVKVLQLPWRWGMKYFWDTLLDADLESDALGWQYITGTLPDSREFDRIDNPQFEGYKFDPNGEYVRRWLPELSRLPTDWIHHPWNAPESVLQAAGIELGSNYPLPIVGLDEAKARLHEALSQMWQLEAASRAAIENGSEEGLGDSAEVEEAPIEFPRDITMEETEPTRLNPNRRYEDQMVPSITSSLIRPEEDEESSLNLRNSVGDSRAEVPRNMVNTNQAQQRRAEPASNQVTAMIPEFNIRIVAESTEDSTAESSSSGRRERSGGIVPEWSPGYSEQFPSEENGIGGGSTTSSYLQNHHEILNWRRLSQTG
chain 2: MEEISTDPVVPAVKPDPRTSSVGEGANRHENDDGGSGGSEIGAPDLDKDLLCPICMQIIKDAFLTACGHSFCYMCIITHLRNKSDCPCCSQHLTNNQLYPNFLLDKLLKKTSARHVSKTASPLDQFREALQRGCDVSIKEVDNLLTLLAERKRKMEQEEAERNMQILLDFLHCLRKQKVDELNEVQTDLQYIKEDINAVERHRIDLYRARDRYSVKLRMLGDDPSTRNAWPHEKNQIGFNSNSLSIRGGNFVGNYQNKKVEGKAQGSSHGLPKKDALSGSDSQSLNQSTVSMARKKRIHAQFNDLQECYLQKRRQLADQPNSKQENDKSVVRREGYSNGLADFQSVLTTFTRYSRLRVIAEIRHGDIFHSANIVSSIEFDRDDELFATAGVSRCIKVFDFSSVVNEPADMQCPIVEMSTRSKLSCLSWNKHEKNHIASSDYEGIVTVWDVTTRQSLMEYEEHEKRAWSVDFSRTEPSMLVSGSDDCKVKVWCTRQEASVINIDMKANICCVKYNPGSSNYIAVGSADHHIHYYDLRNISQPLHVFSGHKKAVSYVKFLSNNELASASTDSTLRLWDVKDNLPVRTFRGHTNEKNFVGLTVNSEYLACGSETNEVYVYHKEITRPVTSHRFGSPDMDDAEEEAGSYFISAVCWKSDSPTMLTANSQGTIKVLVLAA

Variants of: B1
Test: luciferase complementation imaging (LCI); transfected N. benthamiana leaves, n = 14, CCD camera; value is the mean ('+'); median about 0.44, box about 0.22-0.68; parent: 1; read off a plot
chain 1 V548A, chain 1 P549A was tested, and the ratio to parent was about 0.43.
